Data on 23 molecules can be found in PMC9352680, “A comprehensive thermodynamic model for RNA binding by the Saccharomyces cerevisiae Pumilio protein PUF4”.

First the molecules themselves.
B1: Ia_S2_P4E.1_K4.1_C4.1_H4.1_A4.1_[A6G]_F4.1_T4.1 (ssRNA)
RNA: UUUGAUUAAUAUGAUAUCGUUCUUUCUUGUAUGUUAUUCUUUCUCGAUAUCAUAUUAAUCUUU
B2: Ic_S2_P4E.1_K4.1_C4.1_H4.1_A4.1_[A6T]_[T7A]_F4.1_T4.1 (ssRNA)
RNA: B1 RNA with G33U, U34A
B3: Ib_S2_P4E.1_K4.1_C4.1_H4.1_A4.1_[T5A]_[T7C]_F4.1_T4.1 (ssRNA)
RNA: B1 RNA with U32A, G33A, U34C
B4: Ic_S2_P4E.1_K4.1_C4.1_H4.1_A4.1_[A6T]_[T7C]_F4.1_T4.1 (ssRNA)
RNA: B1 RNA with G33U, U34C
B5: Ib_S2_P4E.1_K4.1_C4.1_H4.1_A4.1_[T5C]_[T7C]_F4.1_T4.1 (ssRNA)
RNA: B1 RNA with U32C, G33A, U34C
B6: Ic_S2_P4E.1_K4.1_C4.1_H4.1_A4.1_[A6G]_[T7C]_F4.1_T4.1 (ssRNA)
RNA: B1 RNA with U34C
B7: Ic_S2_P4E.1_K4.1_C4.1_H4.1_A4.1_[A6C]_[T7A]_F4.1_T4.1 (ssRNA)
RNA: B1 RNA with G33C, U34A
B8: Ia_S2_P4E.1_K4.1_C4.1_H4.1_A4.1_[A6C]_F4.1_T4.1 (ssRNA)
RNA: B1 RNA with G33C
B9: Ic_S2_P4E.1_K4.1_C4.1_H4.1_A4.1_[A6T]_[T7G]_F4.1_T4.1 (ssRNA)
RNA: B1 RNA with G33U, U34G
B10: Ia_S2_P4E.1_K4.1_C4.1_H4.1_A4.1_[T7G]_F4.1_T4.1 (ssRNA)
RNA: B1 RNA with G33A, U34G
B11: Ib_S2_P4E.1_K4.1_C4.1_H4.1_A4.1_[T5A]_[T7A]_F4.1_T4.1 (ssRNA)
RNA: B1 RNA with U32A, G33A, U34A
B12: Ic_S2_P4E.1_K4.1_C4.1_H4.1_A4.1_[A6C]_[T7C]_F4.1_T4.1 (ssRNA)
RNA: B1 RNA with G33C, U34C
B13: Ib_S2_P4E.1_K4.1_C4.1_H4.1_A4.1_[A6C]_[T7G]_F4.1_T4.1 (ssRNA)
RNA: B1 RNA with G33C, U34G
B14: Ib_S2_P5E.1_K5.1_C5.1_H5.1_A5.1_F5.1_[T8C]_[T9C]_T5.1 (ssRNA)
RNA: UUUGAUUAAUAUGAUAUCGUUCUUUCUUGUAUUACCAUUCUUUCUCGAUAUCAUAUUAAUCUUU
B15: Ib_S2_P5E.1_K5.1_C5.1_H5.1_A5.1_F5.1_[T8A]_[A10C]_T5.1 (ssRNA)
RNA: B14 RNA with C35A, C36U, A37C
B16: Ib_S2_P5E.1_K5.1_C5.1_H5.1_A5.1_F5.1_[T9G]_[A10T]_T5.1 (ssRNA)
RNA: B14 RNA with C35U, C36G, A37U
B17: Ib_S2_P5E.1_K5.1_C5.1_H5.1_A5.1_F5.1_[T9A]_[A10T]_T5.1 (ssRNA)
RNA: B14 RNA with C35U, C36A, A37U
B18: Ib_S2_P5E.1_K5.1_C5.1_H5.1_A5.1_F5.1_[T8C]_[A10G]_T5.1 (ssRNA)
RNA: B14 RNA with C36U, A37G
B19: Ib_S2_P5E.1_K5.1_C5.1_H5.1_A5.1_F5.1_[T8C]_[A10T]_T5.1 (ssRNA)
RNA: B14 RNA with C36U, A37U
B20: Ib_S2_P5E.1_K5.1_C5.1_H5.1_A5.1_F5.1_[T9A]_[A10C]_T5.1 (ssRNA)
RNA: B14 RNA with C35U, C36A, A37C
B21: Ib_S2_P5E.1_K5.1_C5.1_H5.1_A5.1_F5.1_[T9C]_[A10C]_T5.1 (ssRNA)
RNA: B14 RNA with C35U, A37C
B22: Ic_S2_P5E.1_K5.1_C5.1_H5.1_A5.1_F5.1_[T9C]_[A10T]_T5.1 (ssRNA)
RNA: B14 RNA with C35U, A37U
B23: Ib_S2_P5E.1_K5.1_C5.1_H5.1_A5.1_F5.1_[T9A]_[A10G]_T5.1 (ssRNA)
RNA: B14 RNA with C35U, C36A, A37G

Residue numbers refer to the chain shown, from its start. In names and notes the source's numbering stands.

The target in this data set is T1, PUF4 RNA-binding domain (Saccharomyces cerevisiae, UniProt P25339 537-888).
T1 sequence: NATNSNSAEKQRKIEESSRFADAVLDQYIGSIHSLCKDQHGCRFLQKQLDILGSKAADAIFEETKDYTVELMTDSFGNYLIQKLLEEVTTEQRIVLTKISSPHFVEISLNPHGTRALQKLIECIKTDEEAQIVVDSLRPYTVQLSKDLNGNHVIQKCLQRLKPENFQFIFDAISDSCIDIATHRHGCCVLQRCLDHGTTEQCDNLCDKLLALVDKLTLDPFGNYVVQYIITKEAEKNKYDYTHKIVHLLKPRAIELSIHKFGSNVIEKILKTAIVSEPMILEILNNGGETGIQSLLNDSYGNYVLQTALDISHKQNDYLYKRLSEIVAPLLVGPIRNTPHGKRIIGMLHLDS
The data set can be described thus: Mg; RNA-MaP; 20 mM Na-HEPES pH 7.4, 30 mM KOAc, 0.75 mM MgCl2, 0.1% Tween-20, 5% glycerol, 0.1 mg/mL BSA, 2 mM DTT; 25 C; 0.0125-409.6 nM protein. The note with it: tags: N-His6-TEV cleaved; C-SNAP kept, Cy3B-labelled; label: tethered on chip by stalled RNA polymerase.
A word on the Kd: it is a measure of binding affinity in units of concentration. B1 came in with a Kd of 2.55 nM. To B2 belongs 0.912 nM. To B3 belongs 1.21 nM; to B4, 1 nM.

As to B5, the dissociation constant Kd was determined as 0.279 nM.

B6 came in with a Kd of 2.71 nM.

On to B7, for which the affinity, expressed as Kd, was 0.595 nM. To B8 belongs 1.21 nM.

Consider B9, for which binding was characterised by a dissociation constant (Kd) of 4.85 nM. Under B10 stands 1.05 nM; under B11, 1.83 nM; under B12, 1.76 nM. To B13 belongs 8.48 nM; to B14, 321 nM; to B15, 181 nM. B16 gave a dissociation constant Kd of 3.65 nM. Under B17 stands 0.947 nM; under B18, 64.4 nM; under B19, 64.6 nM. B20: the dissociation constant (Kd) was 7.25 nM. Take B21: the dissociation constant Kd was 19.4 nM. To B22 belongs 17.6 nM; to B23, 3.11 nM.
